Measurements published in patent publication US20230002460A1 (YUHAN, published 2023).

Target: GDF15 receptors GFRAL and RET, overexpressed together on HEK293 cells (UniProt Q6UXV0 19-394; P07949 29-1114, limits assumed)
Assay: cell-based or functional assay

GDF15 receptors GFRAL and RET, overexpressed together on HEK293 cells, sequence (Q6UXV0 19-394 limits assumed, chain 1 of 2): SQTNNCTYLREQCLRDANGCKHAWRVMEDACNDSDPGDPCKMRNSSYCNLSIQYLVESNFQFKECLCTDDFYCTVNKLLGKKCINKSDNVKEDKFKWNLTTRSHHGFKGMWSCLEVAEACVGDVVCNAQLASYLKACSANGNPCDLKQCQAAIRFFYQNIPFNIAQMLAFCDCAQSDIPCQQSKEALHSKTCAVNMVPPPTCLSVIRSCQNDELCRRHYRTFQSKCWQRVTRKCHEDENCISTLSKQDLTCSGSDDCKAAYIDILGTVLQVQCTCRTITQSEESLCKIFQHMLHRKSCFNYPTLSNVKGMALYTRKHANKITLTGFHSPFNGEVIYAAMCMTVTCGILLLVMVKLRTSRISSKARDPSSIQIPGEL
GDF15 receptors GFRAL and RET, overexpressed together on HEK293 cells, sequence (P07949 29-1114 limits assumed, chain 2 of 2): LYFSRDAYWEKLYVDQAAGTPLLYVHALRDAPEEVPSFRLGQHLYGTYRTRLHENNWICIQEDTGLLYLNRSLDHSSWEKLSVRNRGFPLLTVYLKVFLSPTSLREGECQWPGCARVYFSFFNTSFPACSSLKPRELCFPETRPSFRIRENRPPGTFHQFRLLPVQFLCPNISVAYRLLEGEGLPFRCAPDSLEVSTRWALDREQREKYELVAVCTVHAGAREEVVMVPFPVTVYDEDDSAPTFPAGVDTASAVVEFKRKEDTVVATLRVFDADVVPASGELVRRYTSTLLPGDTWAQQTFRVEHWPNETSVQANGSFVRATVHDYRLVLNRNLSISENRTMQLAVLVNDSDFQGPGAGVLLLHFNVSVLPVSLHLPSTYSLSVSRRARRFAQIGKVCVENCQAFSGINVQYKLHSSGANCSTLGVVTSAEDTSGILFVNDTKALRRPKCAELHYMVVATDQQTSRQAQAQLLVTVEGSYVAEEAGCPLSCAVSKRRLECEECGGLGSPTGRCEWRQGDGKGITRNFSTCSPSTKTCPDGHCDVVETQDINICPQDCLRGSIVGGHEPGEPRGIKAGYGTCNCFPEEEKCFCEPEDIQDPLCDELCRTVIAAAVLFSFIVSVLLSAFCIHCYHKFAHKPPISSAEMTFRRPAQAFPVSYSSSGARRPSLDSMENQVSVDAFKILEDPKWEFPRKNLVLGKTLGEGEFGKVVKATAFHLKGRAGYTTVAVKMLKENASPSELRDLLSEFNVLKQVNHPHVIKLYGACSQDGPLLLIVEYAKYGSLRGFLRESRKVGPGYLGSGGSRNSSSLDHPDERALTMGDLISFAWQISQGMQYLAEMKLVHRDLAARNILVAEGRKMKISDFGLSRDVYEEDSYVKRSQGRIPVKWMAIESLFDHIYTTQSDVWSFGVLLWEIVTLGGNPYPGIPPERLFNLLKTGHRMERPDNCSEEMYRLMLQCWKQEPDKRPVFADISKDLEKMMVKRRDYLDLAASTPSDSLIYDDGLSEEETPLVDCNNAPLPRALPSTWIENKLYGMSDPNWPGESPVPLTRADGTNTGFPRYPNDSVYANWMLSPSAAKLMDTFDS

Row | EC50 [nM] | Emax (%) [relative to FWT 100%] [%] | Binder
1 | 24.1 | 90.8 | long-acting GDF15 fusion protein ΔN2, Q51H (Fc fusion) chain 1: APALAGGPSVFLFPPKPKDTLMISRTPEVTCVVVDVSHEDPEVKFNWYVDGVEVHNAKTKPREEQYNSTYRVVSVLTVLHQDWLNGKEYKCKVSNKALPAPIEKTISKAKGQPREPQVYTLPPSREEMTKNQVSLWCLVKGFYPSDIAVEWESNGQPENNYKTTPPVLDSDGSFFLYSKLTVDKSRWQQGNVFSCSVMHEALHNHYTQKSLSLSPGKGGGGSGGGGSGGGGSGGGGSGGGGSNGDHCPLGPGRCCRLHTVRASLEDLGWADWVLSPREVQVTMCIGACPSHFRAANMHAQIKTSLHRLKPDTVPAPCCVPASYNPMVLIQKTDTGVSLQTYDDLLAKDCHCI chain 2: not shown
2 | 9.3 | 10.5 | long-acting GDF15 fusion protein ΔN2, Q90E (Fc fusion) chain 1: APALAGGPSVFLFPPKPKDTLMISRTPEVTCVVVDVSHEDPEVKFNWYVDGVEVHNAKTKPREEQYNSTYRVVSVLTVLHQDWLNGKEYKCKVSNKALPAPIEKTISKAKGQPREPQVYTLPPSREEMTKNQVSLWCLVKGFYPSDIAVEWESNGQPENNYKTTPPVLDSDGSFFLYSKLTVDKSRWQQGNVFSCSVMHEALHNHYTQKSLSLSPGKGGGGSGGGGSGGGGSGGGGSGGGGSNGDHCPLGPGRCCRLHTVRASLEDLGWADWVLSPREVQVTMCIGACPSQFRAANMHAQIKTSLHRLKPDTVPAPCCVPASYNPMVLIEKTDTGVSLQTYDDLLAKDCHCI chain 2: not shown
3 | 43.4 | 73.2 | long-acting GDF15 fusion protein ΔN2, Q90H (Fc fusion) chain 1: APALAGGPSVFLFPPKPKDTLMISRTPEVTCVVVDVSHEDPEVKFNWYVDGVEVHNAKTKPREEQYNSTYRVVSVLTVLHQDWLNGKEYKCKVSNKALPAPIEKTISKAKGQPREPQVYTLPPSREEMTKNQVSLWCLVKGFYPSDIAVEWESNGQPENNYKTTPPVLDSDGSFFLYSKLTVDKSRWQQGNVFSCSVMHEALHNHYTQKSLSLSPGKGGGGSGGGGSGGGGSGGGGSGGGGSNGDHCPLGPGRCCRLHTVRASLEDLGWADWVLSPREVQVTMCIGACPSQFRAANMHAQIKTSLHRLKPDTVPAPCCVPASYNPMVLIHKTDTGVSLQTYDDLLAKDCHCI chain 2: not shown
4 | 44.2 | 41.9 | long-acting GDF15 fusion protein ΔN2, Q51E (Fc fusion) chain 1: APALAGGPSVFLFPPKPKDTLMISRTPEVTCVVVDVSHEDPEVKFNWYVDGVEVHNAKTKPREEQYNSTYRVVSVLTVLHQDWLNGKEYKCKVSNKALPAPIEKTISKAKGQPREPQVYTLPPSREEMTKNQVSLWCLVKGFYPSDIAVEWESNGQPENNYKTTPPVLDSDGSFFLYSKLTVDKSRWQQGNVFSCSVMHEALHNHYTQKSLSLSPGKGGGGSGGGGSGGGGSGGGGSGGGGSNGDHCPLGPGRCCRLHTVRASLEDLGWADWVLSPREVQVTMCIGACPSEFRAANMHAQIKTSLHRLKPDTVPAPCCVPASYNPMVLIQKTDTGVSLQTYDDLLAKDCHCI chain 2: not shown
5 | 15.2 | 88.6 | long-acting GDF15 fusion protein ΔN2, Q51L (Fc fusion) chain 1: APALAGGPSVFLFPPKPKDTLMISRTPEVTCVVVDVSHEDPEVKFNWYVDGVEVHNAKTKPREEQYNSTYRVVSVLTVLHQDWLNGKEYKCKVSNKALPAPIEKTISKAKGQPREPQVYTLPPSREEMTKNQVSLWCLVKGFYPSDIAVEWESNGQPENNYKTTPPVLDSDGSFFLYSKLTVDKSRWQQGNVFSCSVMHEALHNHYTQKSLSLSPGKGGGGSGGGGSGGGGSGGGGSGGGGSNGDHCPLGPGRCCRLHTVRASLEDLGWADWVLSPREVQVTMCIGACPSLFRAANMHAQIKTSLHRLKPDTVPAPCCVPASYNPMVLIQKTDTGVSLQTYDDLLAKDCHCI chain 2: not shown
6 | 14.2 | 87.8 | long-acting GDF15 fusion protein ΔN2, Q51N (Fc fusion) chain 1: APALAGGPSVFLFPPKPKDTLMISRTPEVTCVVVDVSHEDPEVKFNWYVDGVEVHNAKTKPREEQYNSTYRVVSVLTVLHQDWLNGKEYKCKVSNKALPAPIEKTISKAKGQPREPQVYTLPPSREEMTKNQVSLWCLVKGFYPSDIAVEWESNGQPENNYKTTPPVLDSDGSFFLYSKLTVDKSRWQQGNVFSCSVMHEALHNHYTQKSLSLSPGKGGGGSGGGGSGGGGSGGGGSGGGGSNGDHCPLGPGRCCRLHTVRASLEDLGWADWVLSPREVQVTMCIGACPSNFRAANMHAQIKTSLHRLKPDTVPAPCCVPASYNPMVLIQKTDTGVSLQTYDDLLAKDCHCI chain 2: not shown
